The labels stand for the following.
B1: CB6-IgA2 (monomeric chimeric IgA2 of monoclonal antibody CB6) (antibody)
heavy: ASEVQLVESGGGLVQPGGSLRLSCAASGFTVSSNYMSWVRQAPGKGLEWVSVIYSGGSTFYADSVKGRFTISRDNSMNTLFLQMNSLRAEDTAVYYCARVLPMYGDYLDYWGQGTLVTVSSASTKGPSVFPLAPSSKSTSGASPTSPKVFPLSLDSTPQDGNVVVACLVQGFFPQEPLSVTWSESGQNVTARNFPPSQDASGDLYTTSSQLTLPATQCPDGKSVTCHVKHYTNPSQDVTVPCPVPPPPPCCHPRLSLHRPALEDLLLGSEANLTCTLTGLRDASGATFTWTPSSGKSAVQGPPERDLCGCYSVSSVLPGCAQPWNHGETFTCTAAHPELKTPLTANITKSGNTFRPEVHLLPPPSEELALNELVTLTCLARGFSPKDVLVRWLQGSQELPREKYLTWASRQEPSQGTTTFAVTSILRVAAEDWKKGDTFSCMVGHEALPLAFTQKTIDRLAGKPTHVNVSVVMAEVDGTCY
light: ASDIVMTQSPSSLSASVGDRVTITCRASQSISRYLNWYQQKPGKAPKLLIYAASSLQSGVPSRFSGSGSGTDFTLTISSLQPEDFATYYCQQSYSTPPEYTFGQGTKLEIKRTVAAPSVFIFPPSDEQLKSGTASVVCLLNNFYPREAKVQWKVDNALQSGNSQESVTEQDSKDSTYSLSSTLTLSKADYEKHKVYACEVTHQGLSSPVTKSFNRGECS
notes: also called monomeric CB6-IgA2
B2: chimeric secretory component (CSC) of the polymeric immunoglobulin receptor (receptor)
chain: QSSLLGPSSIFGPGEVNVLEGDSVSITCYYPTTSVTRHSRKFWCREEESGRCVTLASTGYTSQEYSGRGKLTDFPDKGEFVVTVDQLTQNDSGSYKCGVGVNGRGLDFGVNVLVSQKPELLNDTKVYTVDLGRTVTINCPFKTENAQKRKSLYKQIGLYPVLVIDSSGYVNPNYTGRIRLDIQGTGQLLFSVVINQLRLSDAGQYLCQAGDDSNSNKKNADLQVLKPEPELVYEDLRGSVTFHCALGPEVANVAKFLCRQSSGENCDVVVNTLGKRAPAFEGRILLNPQDKDGSFSVVITGLRKEDAGRYLCGAHSDGQLQEGSPIQAWQLFVNEESTIPRSPTVVKGVAGGSVAVLCPYNRKESKSIKYWCLWEGAQNGRCPLLVDSEGWVKAQYEGRLSLLEEPGNGTFTVILNQLTSRDAGFYWCLTNGDTLWRTTVEIKIIEGEPNLKVPGNVTAVLGETLKVPCHFPCKFSSYEKYWCKWNNTGCQALPSQDEGPSKAFVNCDENSRLVSLTLNLVTRADEGWYWCGVKQGHFYGETAAVYVAVEERKAAGSRDVSLAKADAAPDEKVLDSGFREIENKAIQDPRLFAEEKAVADTRDQADGSRASVDSGSSEEQGGSSRR
notes: also called R/HpIgR; chimeric pIgR; not shown: C-terminal 6 histidine tag

The target of assay [1] is B2. Description: lateral flow assay, CSC test line, detection with RBD-biotin/streptavidin gold.
Assay [2] deals with T1, purified IgM.
T1 construct: also called pentameric IgM
Nature of the assay: pull-down on CSC beads, reducing SDS-PAGE, bands quantitated.

Assay [3] has as its target purified IgG. Described as above.

Turning to B1, in assay [1], the binding result is reported as “no binding (tested: 100 µg/ml)”.
For the molecule B2, the percent bound in assay [2] and in assay [3] was roughly 20% each time.
